This note sets out measurements from article PMC6773438.

The target of this experiment is mononucleosomes reconstituted by salt dialysis with purified recombinant Drosophila core histones (Drosophila), P84051. Kind of experiment: native gel or EMSA; gel mobility shift; 147 bp X. borealis 5S rDNA mononucleosomes (60 nM) with indicated amounts of Dsup; HEG buffer (25 mM Hepes K+, pH 7.6, 0.1 mM EDTA, 10% glycerol), 100 mM KCl, BSA; 30°C 30 min; nondenaturing 4.5% polyacrylamide gel at 4°C, ethidium bromide. The conditions noted are these: remark: other sources report otherwise.

B1: Ramazzottius varieornatus damage suppressor protein (Rv Dsup), P0DOW4 1-445 (natural protein)
chain: MASTHQSSTEPSSTGKSEETKKDASQGSGQDSKNVTVTKGTGSSATSAAIVKTGGSQGKDSSTTAGSSSTQGQKFSTTPTDPKTFSSDQKEKSKSPAKEVPSGGDSKSQGDTKSQSDAKSSGQSQGQSKDSGKSSSDSSKSHSVIGAVKDVVAGAKDVAGKAVEDAPSIMHTAVDAVKNAATTVKDVASSAASTVAEKVVDAYHSVVGDKTDDKKEGEHSGDKKDDSKAGSGSGQGGDNKKSEGETSGQAESSSGNEGAAPAKGRGRGRPPAAAKGVAKGAAKGAAASKGAKSGAESSKGGEQSSGDIEMADASSKGGSDQRDSAATVGEGGASGSEGGAKKGRGRGAGKKADAGDTSAEPPRRSSRLTSSGTGAGSAPAAAKGGAKRAASSSSTPSNAKKQATGGAGKAAATKATAAKSAASKAPQNGAGAKKKGGKAGGRKRK
As to B1, the stoichiometry N (molecules of Rv Dsup per nucleosome) stood at 2.
